Article PMC2504713 (Journal of Leukocyte Biology, 2008)
Each block holds one molecule with its values, some of them ahead of it.

Assays:
[1] = biological target: Recombinant rat Nrp1, conjugated to an Fc fragment of human IgG1 (Nrp1-Fc) (rat) (UniProt Q9QWJ9); test: ELISA
[2] = biological target: T1, LAP C-terminal peptide QSSRHRR; test: ELISA
T1 peptide: Ac-QSSRHRR-OH

- EC50 [1]: 338 pM
Molecule: LAP-TGF-β1 (the latent form of TGF-β1) (from UniProt P01137 30-278) (complex)

- IC50 [1]: 890 pM
- Kd [1]: 40 pM
Molecule: Active (mature) TGF-β1 (ligand)

- EC50 [2]: 4180 ± 990 pM
B1: Recombinant rat Nrp1, conjugated to an Fc fragment of human IgG1 (Nrp1-Fc) (Fc fusion, UniProt Q9QWJ9 22-855, looked up)
chain: FRSDKCGGTIKIENPGYLTSPGYPHSYHPSEKCEWLIQAPEPYQRIMINFNPHFDLEDRDCKYDYVEVIDGENEGGRLWGKFCGKIAPSPVVSSGPFLFIKFVSDYETHGAGFSIRYEIFKRGPECSQNYTAPTGVIKSPGFPEKYPNSLECTYIIFAPKMSEIILEFESFDLEQDSNPPGGVFCRYDRLEIWDGFPEVGPHIGRYCGQKTPGRIRSSSGILSMVFYTDSAIAKEGFSANYSVLQSSISEDFKCMEALGMESGEIHSDQITASSQYGTNWSVERSRLNYPENGWTPGEDSYREWIQVDLGLLRFVTAVGTQGAISKETKKKYYVKTYRVDISSNGEDWITLKEGNKAIIFQGNTNPTDVVFGVFPKPLITRFVRIKPASWETGISMRFEVYGCKITDYPCSGMLGMVSGLISDSQITASNQGDRNWMPENIRLVTSRTGWALPPSPHPYINEWLQVDLGDEKIVRGVIIQGGKHRENKVFMRKFKIAYSNNGSDWKMIMDDSKRKAKSFEGNNNYDTPELRAFTPLSTRFIRIYPERATHSGLGLRMELLGCEVEVPTAGPTTPNGNPVDECDDDQANCHSGTGDDFQLTGGTTVLATEKPTIIDSTIQSEFPTYGFNCEFGWGSHKTFCHWEHDSHAQLRWRVLTSKTGPIQDHTGDGNFIYSQADENQKGKVARLVSPVVYSQSSAHCMTFWYHMSGSHVGTLRVKLHYQKPEEYDQLVWMVVGHQGDHWKEGRVLLHKSLKLYQVIFEGEIGKGNLGGIAVDDISINNHIPQEDCAKPTDLDKKNTEIKIDETGSTPGYEEGKGDKNISRKPGNVLKTLDP
